{"source": "patent US20160108105A1", "target": "FcγRI (UniProt P12314)", "sequence (P12314 16-288 limits assumed)": "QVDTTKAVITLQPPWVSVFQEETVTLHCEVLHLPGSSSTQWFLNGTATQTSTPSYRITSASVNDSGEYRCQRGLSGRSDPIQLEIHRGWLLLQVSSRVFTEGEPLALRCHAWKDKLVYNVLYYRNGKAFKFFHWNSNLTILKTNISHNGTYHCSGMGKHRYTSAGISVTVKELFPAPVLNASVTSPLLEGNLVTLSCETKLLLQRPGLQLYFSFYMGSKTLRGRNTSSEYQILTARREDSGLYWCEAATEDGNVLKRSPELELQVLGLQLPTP", "assay": "ELISA, coated protein, soluble FcγRI 2 µg/ml", "data": [{"substance": "hGH-chimeric IgG4 variant: 4 amino acids at the N-terminus of IgG4 Fc CH2 domain replaced with 2 amino acids of IgD CH2 domain (Fc fusion)", "values": [{"measurement": "FcγRI binding ability relative to hGH-IgG4Fc-wt (fold of hGH-IgG4Fc-wt)", "result": 0.5}]}]}
